First the molecules themselves.
B1: HuCOL-1AbrCDR (antibody, V domains shown)
VH: EVQLVQSGAEVVKPGASVKMSCKASGFNIKDYYMHWVKQRPEQGLEWIGWIDPENGDTEYAQKFQGKATMTTDTSTSTAYLELSSLRSEDTAVYYCNTRGLSTMITTRWFFDVWGAGTLVTVSS
VL: DIVLTQSPASLAVSLGERATINCKSSQSVSASGYSYMHWYQQKPGQPPKLLIYLASNLQSGVPARFSGSGSGTDFTLTISSVQAEDVATYYCQHSRELPTFGGGTKLEIK
notes: also called FRV1; HuCOL-1 24,25,27L/61H
B2: HuCOL-1AbrCDR framework variant 10 (FRV10) (antibody, V domains shown)
VH: B1 VH with E1Q, V12K, M20V, F27Y, K38R, I48M, K67R, A68V, A79V, L81M
VL: B1 VL
notes: also called HuCOL-1FRV10
B3: HuCOL-1 (antibody, V domains shown)
VH: B1 VH with R40A, E42G, Q62P
VL: B1 VL with K24R, S25A, Q27K
notes: Whole humanized antibody; also called humanized COL-1; ATCC PTA-4661
B4: HuCOL-1AbrCDR framework variant 7 (FRV7) (antibody, V domains shown)
VH: B1 VH with M20V, F27Y, K38R, I48M, K67R, A68V, A79V, L81M
VL: B1 VL
notes: also called HuCOL-1FRV7; FR7
B5: HuCOL-1AbrCDR framework variant 4 (FRV4) (antibody, V domains shown)
VH: B1 VH with M20V, K38R, I48M, K67R, A79V, L81M
VL: B1 VL
notes: also called HuCOL-1FRV4
B6: murine COL-1 monoclonal antibody (antibody, V domains shown)
VH: EVQLQQSGAELVRSGASVKMSCTASGFNIKDYYMHWVKQRPEQGLEWIGWIDPENGDTEYAPKFQGKATMTTDTSSNTAYLQLSSLTSEDTAVYYCNTRGLSTMITTRWFFDVWGAGTTVAVSS
VL: DIVLTQSPASLTVSLGLRATISCRASKSVSASGYSYMHWYQQRPGQPPKLLIYLASNLQSGVPARFSGSGSGTDFTLNIHPVEEEDAATYYCQHSRELPTFGGGTKLEIK
notes: Whole murine antibody; also called mCOL-1; muCOL-1
B7: chimeric COL-1 (antibody, V domains shown)
VH: B6 VH
VL: B6 VL
B8: FRV11 (antibody, name in Kabat numbering, V domains shown)
VH: B1 VH with E1Q, V12K, M20V, F27Y, K38R, I48M, K67R, A68V, A79V, L81M
VL: B1 VL with L4M, V82L, L107V
notes: Kabat positions (see notes of FRV2 and FRV8); also called HuCOL-1AbrCDR framework variant 11
B9: FRV9 (antibody, name in Kabat numbering, V domains shown)
VH: B1 VH with M20V, F27Y, K38R, I48M, K67R, A68V, A79V, L81M
VL: B1 VL with L4M, A64D, V82L, T89V, L107V
notes: Kabat positions (see notes of FRV2 and FRV8); also called HuCOL-1AbrCDR framework variant 9
B10: FRV12 (antibody, name in Kabat numbering, V domains shown)
VH: B1 VH with E1Q, V12K, M20V, F27Y, K38R, I48M, K67R, A68V, A79V, L81M
VL: B1 VL with L4M, A64D, V82L, T89V, L107V
notes: Kabat positions (see notes of FRV2 and FRV8); also called HuCOL-1AbrCDR framework variant 12
B11: FRV6 (antibody, name in Kabat numbering, V domains shown)
VH: B1 VH with M20V, K38R, I48M, K67R, A79V, L81M
VL: B1 VL with L4M, A64D, V82L, T89V, L107V
notes: Kabat positions (see notes of FRV2 and FRV5); also called HuCOL-1AbrCDR framework variant 6
B12: FRV5 (antibody, name in Kabat numbering, V domains shown)
VH: B1 VH with M20V, K38R, I48M, K67R, A79V, L81M
VL: B1 VL with L4M, V82L, L107V
notes: Kabat positions; also called HuCOL-1AbrCDR framework variant 5
B13: FRV8 (antibody, name in Kabat numbering, V domains shown)
VH: B1 VH with M20V, F27Y, K38R, I48M, K67R, A68V, A79V, L81M
VL: B1 VL with L4M, V82L, L107V
notes: Kabat positions; also called HuCOL-1AbrCDR framework variant 8
B14: FRV2 (antibody, name in Kabat numbering, V domains shown)
VH: B1 VH
VL: B1 VL with L4M, V82L, L107V
notes: also called HuCOL-1AbrCDR framework variant 2
B15: FRV3 (antibody, name in Kabat numbering, V domains shown)
VH: B1 VH
VL: B1 VL with L4M, A64D, V82L, T89V, L107V
notes: Kabat positions (see note of FRV2); also called HuCOL-1AbrCDR framework variant 3

Where a chain is given by its changes, count along the chain named.

One assay addresses anti-V region antibodies to COL-1 present in the serum of patient two. The assay is described as follows: SPR competition, serum of patient two; reference HuCOL-1.
Molecule B1 gave a fold higher IC50 than HuCOL-1 of 1.5 fold.

For another assay, the target named is anti-V region antibodies to COL-1 present in the serum of patient one. In words: SPR competition, serum of patient one; reference HuCOL-1.
B1 had a fold higher IC50 than HuCOL-1 of 1.5 fold.

Another assay has as its target T1, carcinoembryonic antigen (CEA) (human, UniProt P06731 35-685).
T1 sequence (looked up): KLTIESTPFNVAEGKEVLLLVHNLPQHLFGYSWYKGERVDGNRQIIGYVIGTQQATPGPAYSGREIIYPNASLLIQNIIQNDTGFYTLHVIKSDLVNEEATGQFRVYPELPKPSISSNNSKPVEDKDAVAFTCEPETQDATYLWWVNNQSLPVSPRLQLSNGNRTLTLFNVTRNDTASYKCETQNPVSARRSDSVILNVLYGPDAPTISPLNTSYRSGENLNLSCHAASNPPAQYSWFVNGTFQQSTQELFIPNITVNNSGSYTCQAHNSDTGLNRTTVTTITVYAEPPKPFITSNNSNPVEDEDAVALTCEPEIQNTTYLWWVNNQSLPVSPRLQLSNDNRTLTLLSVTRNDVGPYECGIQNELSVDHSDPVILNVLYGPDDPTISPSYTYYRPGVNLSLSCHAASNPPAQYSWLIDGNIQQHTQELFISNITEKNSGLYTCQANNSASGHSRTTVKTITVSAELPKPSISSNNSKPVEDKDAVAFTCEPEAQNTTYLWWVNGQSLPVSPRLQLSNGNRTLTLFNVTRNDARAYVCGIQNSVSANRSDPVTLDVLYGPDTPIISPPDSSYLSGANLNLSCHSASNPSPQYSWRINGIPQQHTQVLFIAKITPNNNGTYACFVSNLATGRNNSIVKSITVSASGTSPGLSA
In words: competition RIA against 125I-mCOL-1 on CEA; modified Scatchard. On the procedure:
(§1) Competition RIA: The relative antigen-binding affinity of HuCOL-1, HuCOL-1AbrCDR and HuCOL-1AbrCDR antibodies with framework-substitutions was determined using a competition RIA as described previously (De Pascalis et al., J Immunol., 169:3076-3084, 2002). Twenty-five μl of serial dilutions of the antibodies to be tested, as well as mCOL-1, chimeric COL-1, and HuCOL-1 (positive controls) and HuIgG (negative control), prepared in 1% BSA in PBS, were added to microtiter plates containing 10 ng of […] saturated with 5% BSA in PBS. ¹²⁵I-labeled mCOL-1 (100,000 cpm in 25 μl) was then added to each well. After an overnight incubation at 4° C., the plates were washed and the bound radioactivity was counted in a γ-scintillation counter.
(§2) Competition RIA experiments were performed to determine the relative CEA-binding affinity of chimeric COL-1, HuCOL-1, HuCOL-1AbrCDR, and the different HuCOL-1AbrCDR-derived antibodies. Serial dilutions of unlabeled antibodies were used to compete with the binding of ¹²⁵I-mCOL-1 (FIGS. 4A, 4B and 4C) to CEA.
Regarding B1, the Ka stood at 2.32e+08 M⁻¹.

B2: the Ka worked out at 3.04e+08 M⁻¹.

For the molecule B3, the Ka worked out at 2.78e+08 M⁻¹.

B4 registered a Ka of 3.07e+08 M⁻¹.

Turning to B5, the Ka came out at 2.51e+08 M⁻¹.

The target of the next assay is T1, carcinoembryonic antigen (CEA). The assay is described as follows: competition RIA against 125I-mCOL-1; reference of the fold not named. On the procedure: as §1, §2
Regarding B6, the “Fold Difference” value was found to be 1 fold.

As for B7, the “Fold Difference” value was 1.4 fold.

Take B1: the “Fold Difference” value was 1.2 fold.

As to B8, the “Fold Difference” value worked out at 4.5 fold.

As for B9, the “Fold Difference” value is 4.5 fold.

Take B10: the “Fold Difference” value was found to be 5.6 fold.

Consider B2, for which the “Fold Difference” value was determined as 0.9 fold.

As to B11, the “Fold Difference” value was found to be 2.8 fold.

In the case of B3, the “Fold Difference” value was found to be 1 fold.

Regarding B4, the “Fold Difference” value is 0.9 fold.

On to B12, for which the “Fold Difference” value turned out to be 2.7 fold.

For B13, the “Fold Difference” value stood at 3.6 fold.

Turning to B14, the “Fold Difference” value worked out at 9.5 fold.

In the case of B15, the “Fold Difference” value came to 8.6 fold.

Take B5: the “Fold Difference” value was determined as 1.1 fold.

A further assay concerns the target anti-V region antibodies to COL-1 present in the serum of patient two. In words: SPR competition; reference HuCOL-1; lower end tied to serum EM by Table IV (9.7 against 1.9).
The molecule B2 gave a fold higher IC50 than HuCOL-1 of 5 to 6 fold.

For another assay, the target named is T1, carcinoembryonic antigen (CEA). In words: competition RIA, unlabeled antibody against 125I-mCOL-1 on CEA; modified Scatchard. On the procedure:
as §1, §2
In the case of B6, the Ka is 2.74e+08 M⁻¹.

B7 yielded a Ka of 1.99e+08 M⁻¹.

In turn, B1 registered a Ka of 2.3e+08 M⁻¹.

In turn, B8 came in with a Ka of 6.1e+07 M⁻¹.

In turn, B9 gave a Ka of 6.1e+07 M⁻¹.

As for B10, the Ka was 4.9e+07 M⁻¹.

On to B2, for which the Ka was 3.04e+08 M⁻¹.

B11 displayed a Ka of 1e+08 M⁻¹.

For the molecule B3, the Ka was determined as 2.78e+08 M⁻¹.

Take B4: the Ka was 3.07e+08 M⁻¹.

B12 gave a Ka of 1.01e+08 M⁻¹.

Take B13: the Ka worked out at 7.7e+07 M⁻¹.

Molecule B14 returned a Ka of 2.9e+07 M⁻¹.

With B15, the Ka worked out at 3.2e+07 M⁻¹.

The molecule B5 gave a Ka of 2.51e+08 M⁻¹.

The target of another assay is anti-V region antibodies to COL-1 present in the serum of patient one. In words: SPR competition; reference HuCOL-1; upper end tied to serum MB by Table IV (28.5 against 4.9).
On to B2, for which the fold higher IC50 than HuCOL-1 lay within 5 to 6 fold.

Another assay has as its target anti-V region antibodies to COL-1 present in the serum of patient two. In words: SPR competition; soluble antibody against immobilized HuCOL-1 for serum anti-V region antibodies.
As to B1, the IC50 (in general, the concentration needed to halve the response being measured) turned out to be 2.9 nM.

B2 displayed a half-maximal inhibitory concentration (IC50) of 9.7 nM.

For B3, the half-inhibitory concentration (IC50) came out at 1.9 nM.

A further assay concerns the target anti-V region antibodies to COL-1 present in the serum of patient one. The description is as above.
On to B1, for which the IC50 was found to be 6.9 nM.

Molecule B2 returned a half-maximal inhibitory concentration (IC50) of 28.5 nM.

As to B3, the IC50 worked out at 4.9 nM.

The target of the next assay is T1, carcinoembryonic antigen (CEA). The assay is described as follows: competition RIA: unlabeled antibody against 125I-mCOL-1 for binding to CEA, % inhibition against amount competitor Ab (ng), log axis.
Text: FIGS. 4A, 4B, and 4C are a series of graphs of a competition radioimmunoassay of HuCOL-1AbrCDR framework variants using ¹²⁵I-mCOL-1. Serial dilutions of unlabeled antibodies were used to compete with the binding of ¹²⁵ImCOL-1. The data was divided into three individual graphs to facilitate viewing. FIG. 4A compares the binding of unlabeled murine COL-1 (muCOL-1), chimeric COL-1 (cCOL-1), HuCOL-1, FRV1 (HuCOL-1AbrCDR), and human IgG (HuIgG). FIG. 4B compares the binding of unlabeled murine HuCOL-1AbrCDR, FRV2, FRV3, FRV4, FRV7, and FRV10. FIG. 4C compares the binding of unlabeled murine HuCOL-1AbrCDR, FRV5, FRV6, FRV8, FRV9, FRV11, and FRV12.
as §1, §2
Consider B6, for which the “IC50 (read off the curve)” value was about 20 ng.

Take B7: the “IC50 (read off the curve)” value was about 30 ng.

B12: the “IC50 (read off the curve)” value is about 30 ng.

Values taken from US20080274055A1 (US Dept. of Health and Human Services, published 2008).
